Laboratory results as given in article PMC6212398, “Competing protein-protein interactions regulate binding of Hsp27 to its client protein tau” (Nature Communications, 2018).

Assays:
[1] = target: Hsp27 GPG (isoleucine and valine of the IPV motif mutated to glycine) (human) (UniProt P04792); test: ITC; peptide (1 mM) titrated into a cell with Hsp27 proteins (100 µM); SEC buffer (50 mM sodium phosphate, 100 mM NaCl); 25 °C; one-site binding model
[2] = target: Hsp27 ΔNTD GPG (human) (UniProt P04792); test: as above

- Kd [1]: 10 µM
- stoichiometry N [1]: 0.2
- Kd [2]: 14.3 µM
Binder: EITIPVTHE [Hsp27 IPV H peptide (…)]
